In article PMC10272835, “Exploration of T cell immune responses by expression of a dominant-negative SHP1 and SHP2” (Frontiers in Immunology, 2023):

System: SupT1-GD2 cells
Test: Effect of inhibitory ligand expression on GD2 CAR cytotoxicity
Format: cell-based
Details: ligand expressed on SupT1-GD2, E:T 1:4 and 1:8, 6 days
Method: Transduced T cells were depleted of CD56 cells using the EasySep Human CD56 positive selection kit (Stemcell Technologies; 17855) and rested for 24 hours. Transduced cells were co-cultured with target cells at the indicated effector: target (E:T) ratios with target cells remaining constant at the indicated number of target cells/co-culture. At the end of the co-culture period target cells were enumerated by flow cytometry and cytotoxicity calculated as a percentage of the number of target cells recovered from co-cultures with non-transduced (NT) T cells.
Figure 3 Interaction of dSHP2 with immunoinhibitory T cell receptors. (A-E) Binding of dSHP2 to phosphorylated peptides derived from the endodomains of immunoinhibitory T cell receptors. Plates were coated with phosphorylated or non-phosphorylated peptide at the indicated concentration and the purified, His-tagged SH2 domains of dSHP2 were allowed to bind overnight. Binding was measured through detection of the His tag. (F) Effect of inhibitory ligand expression on target cells on CAR T cytotoxicity. […] Supernatants were harvested from these co-cultures and levels of IFNγ measured by ELISA (I). […] Statistical significance was measured by two-way ANOVA. […]

B1: HVEM: inhibitory ligand of BTLA expressed on SupT1-GD2 cells (protein, UniProt Q92956 39-283, looked up)
Tumor necrosis factor …: LPSCKEDEYPVGSECCPKCSPGYRVKEACGELTGTVCEPCPPGTYIAHLNGLSKCLQCQMCDPAMGLRASRNCSRTENAVCGCSPGHFCIVQDGDHCAACRAYATSSPGQRVQKGGTESQDTLCQNCPPGTFSPNGTLEECQHQTKCSWLVTKAGAGTSSSHWVWWFLSGSLVIVIVCSTVGLIICVKRRKPRGDVVKVIVSVQRKRQEAEGEATVIEALQAPPDVTTVAVEETIPSFTGRSPNH
In the case of B1, the “effect of target cell ligand expression on CAR T cytotoxicity” value is reported as “mild enhancement of CAR T cytotoxicity”.

B2: CD155: inhibitory ligand of TIGIT expressed on SupT1-GD2 cells (protein, UniProt P15151 21-417, looked up)
Poliovirus receptor: WPPPGTGDVVVQAPTQVPGFLGDSVTLPCYLQVPNMEVTHVSQLTWARHGESGSMAVFHQTQGPSYSESKRLEFVAARLGAELRNASLRMFGLRVEDEGNYTCLFVTFPQGSRSVDIWLRVLAKPQNTAEVQKVQLTGEPVPMARCVSTGGRPPAQITWHSDLGGMPNTSQVPGFLSGTVTVTSLWILVPSSQVDGKNVTCKVEHESFEKPQLLTVNLTVYYPPEVSISGYDNNWYLGQNEATLTCDARSNPEPTGYNWSTTMGPLPPFAVAQGAQLLIRPVDKPINTTLICNVTNALGARQAELTVQVKEGPPSEHSGISRNAIIFLVLGILVFLILLGIGIYFYWSKCSREVLWHCHLCPSSTEHASASANGHVSYSAVSRENSSSQDPQTEGTR
In the case of B2, the “effect of target cell ligand expression on CAR T cytotoxicity” value is reported as “mild enhancement of CAR T cytotoxicity”.
